Consider 15 molecules from patent US20250270254A1, “PROBES AND KITS FOR THE EARLY DIAGNOSIS OF DIFUSE LARGE B-CELL LYMPHOMA” (BEIJING BOE TECHNOLOGY DEVELOPMENT CO., LTD., priority 2022, published 2025).

Where a SMILES comes first, the peptide text is derived from it.

B1: BtaPL1 (peptide)
peptide: ICWRRRRRF
notes: Designed synthetic polypeptide probe; spotted on a bare gold SPRi chip; also called Ile-Cys-Trp-Arg5-Phe
B2: Bta1335 (peptide)
peptide: CCHRGF
notes: Synthetic polypeptide probe from the Mix-Split library; spotted on a bare gold SPRi chip; also called Cys-Cys-His-Arg-Gly-Phe
B3: BtaP2 (peptide)
peptide: ICWRRF
notes: Designed synthetic polypeptide probe; spotted on a bare gold SPRi chip; also called Ile-Cys-Trp-Arg-Arg-Phe
B4: BtaPL2 (peptide)
peptide: ICWRRRRRRRF
notes: Designed synthetic polypeptide probe; spotted on a bare gold SPRi chip; also called Ile-Cys-Trp-Arg7-Phe
B5: BtaE2 (peptide)
peptide: ICWGGRRRGGGF
notes: Designed synthetic polypeptide probe; spotted on a bare gold SPRi chip; also called Ile-Cys-Trp-Gly2Arg3Gly3-Phe
B6: BtaP3 (peptide)
peptide: ICWRRGI
notes: Designed synthetic polypeptide probe; spotted on a bare gold SPRi chip; also called Ile-Cys-Trp-Arg-Arg-Gly-Ile
B7: BtaPL3 (peptide)
peptide: ICWRRRRRRRRRF
notes: Designed synthetic polypeptide probe; spotted on a bare gold SPRi chip; also called Ile-Cys-Trp-Arg9-Phe
B8: BtaPL4 (peptide)
peptide: ICWRRRRRRRRRRRF
notes: Designed synthetic polypeptide probe; spotted on a bare gold SPRi chip; also called Ile-Cys-Trp-Arg11-Phe
B9: BtaE3 (peptide)
peptide: ICWGRRRGGF
notes: Designed synthetic polypeptide probe; spotted on a bare gold SPRi chip; also called Ile-Cys-Trp-Gly-Arg3-Gly2-Phe
B10: BtaPL5 (peptide)
peptide: ICWRRRRRRRRRRRRRF
notes: Designed synthetic polypeptide probe; spotted on a bare gold SPRi chip; also called Ile-Cys-Trp-Arg13-Phe
B11: BtaP1 (peptide)
peptide: HCWRRF
notes: Designed synthetic polypeptide probe; spotted on a bare gold SPRi chip; also called His-Cys-Trp-Arg-Arg-Phe
B12: Bta893 (peptide)
peptide: HCWRGF
notes: Synthetic polypeptide probe from the Mix-Split library; spotted on a bare gold SPRi chip; also called His-Cys-Trp-Arg-Gly-Phe
B13: BtaE1 (peptide)
peptide: ICWRRRGGGF
notes: Designed synthetic polypeptide probe; spotted on a bare gold SPRi chip; also called Ile-Cys-Trp-Arg3Gly3-Phe
B14: Bta3097 (peptide)
peptide: GCYRRF
notes: Synthetic polypeptide probe from the Mix-Split library; spotted on a bare gold SPRi chip; also called Gly-Cys-Tyr-Arg-Arg-Phe

As usually defined, the Kd is the concentration at which binding is half-saturated. A low value points to higher affinity.

Sequence of CD138 (P18827 23-251): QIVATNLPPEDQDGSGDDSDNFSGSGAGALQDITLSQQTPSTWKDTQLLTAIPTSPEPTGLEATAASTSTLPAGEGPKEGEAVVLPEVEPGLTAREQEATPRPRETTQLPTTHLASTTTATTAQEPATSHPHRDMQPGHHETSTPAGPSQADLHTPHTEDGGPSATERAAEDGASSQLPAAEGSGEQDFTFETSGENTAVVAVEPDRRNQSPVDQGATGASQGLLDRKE

The first test concerns diffuse large B-cell lymphoma cells. Briefly: Analysis of probe specificity: probe-coupled magnetic bead capture from mixed cells, flow cytometry. Conditions: positive cells (diffuse large B-cell lymphoma cells) mixed with negative cells (HELA cells) 1:10; proportion of positive cells among captured cells by flow cytometry. It counts as cell-based. As to the method: The diagnostic specificity of the small molecular probe was detected using flow cytometry and the specific steps were as follows: • 1) Preparation of gradient concentration of cell samples: positive cells (diffuse large B-cell lymphoma cells) were mixed with negative cells (HELA cells) at a ratio of 1:10 and repeatedly pipetted to mix well; • 2) Probe-bead coupling: the reaction was performed in PBS buffer, with a bead-coupling concentration of 1 mg/mL, and 1 mg of beads corresponded to 10 μg of the BtaE3 probe, with gentle shaking for 1 h at room temperature. This was followed by washing five times with PBS buffer containing 0.01% BSA, standing for 30 s each time, and finally resuspending in PBS buffer at a concentration of 15 mg/mL; • 3) Positive cell enrichment: cells were thoroughly mixed with the magnetic bead suspension, with shaking by hand for 30 min at 4° C. in an ice box, followed by washing three times with PBS (containing 0.1% BSA and 2 mM EDTA) buffer and resuspending in PBS; • 4) Specificity analysis: The captured cells were separated using a magnetic field, and the protein expression profile was quantified by flow cytometry to calculate the proportion of positive cells.
In general terms: A flow cytometer gives signals particle by particle.
Consider `CC[C@H](C)[C@H](N)C(=O)N[C@@H](CS)C(=O)N[C@@H](Cc1c[nH]c2ccccc12)C(=O)NCC(=O)N[C@@H](CCCNC(=N)N)C(=O)N[C@@H](CCCNC(=N)N)C(=O)N[C@@H](CCCNC(=N)N)C(=O)NCC(=O)NCC(=O)N[C@@H](Cc1ccccc1)C(=O)O` [BtaE3, Ile-Cys-Trp-Gly-Arg3-Gly2-Phe] (H-ICWGRRRGGF-OH; N-terminus and C-terminus assumed), for which the specificity for detection is given as greater than 90%.

Another test has as its target CD138 (UniProt P18827 23-251). The test can be described thus: SPR imaging (SPRi); probe spotted on bare gold chip, CD138 flowed at 50-800 nM.
Settings: not given
In turn, B1 yielded a Kd of 0.856 nM.
B2 displayed a Kd of 2.57 nM.
B3 displayed a Kd of 1.02 nM.
Molecule B4 registered a Kd of 0.731 nM.
On the same count and under the same terms, then B5, with 0.309 nM.
B6: the Kd was determined as 0.977 nM.
For B7, the affinity, expressed as Kd, was 6.56 nM.
B8 registered a Kd of 9.21 nM.
In the case of B9, the affinity, expressed as Kd, was 0.121 nM.
The molecule B10 gave a Kd of 85.7 nM.
The molecule B11 had a Kd of 1.15 nM.
The same measure, in the same setting: as for B12, the figure is 1.29 nM; as for B13, 0.702 nM; as for B14, 5.26 nM.
